Measured values published in patent US20230382970A1 (HANMI PHARM, published 2023).
Bridge positions count the residues as written; N and C are the ends. Square brackets hold non-standard residues; d marks the D form. Ends that are not written are not given here. * marks the point of attachment. Desaminotyrosyl = O=C(CCc1ccc(O)cc1)*; Nle = CCCC[C@H](N)C(=O)O; Aib = CC(C)(N)C(=O)O

Tests used:
[1] = molecular target: human GLP-1 receptor (human, UniProt P43220 24-463); assay: cell-based or functional assay
[2] = molecular target: T1, human GIP receptor (human, UniProt P48546 22-466); assay: cell-based or functional assay
T1 sequence (looked up): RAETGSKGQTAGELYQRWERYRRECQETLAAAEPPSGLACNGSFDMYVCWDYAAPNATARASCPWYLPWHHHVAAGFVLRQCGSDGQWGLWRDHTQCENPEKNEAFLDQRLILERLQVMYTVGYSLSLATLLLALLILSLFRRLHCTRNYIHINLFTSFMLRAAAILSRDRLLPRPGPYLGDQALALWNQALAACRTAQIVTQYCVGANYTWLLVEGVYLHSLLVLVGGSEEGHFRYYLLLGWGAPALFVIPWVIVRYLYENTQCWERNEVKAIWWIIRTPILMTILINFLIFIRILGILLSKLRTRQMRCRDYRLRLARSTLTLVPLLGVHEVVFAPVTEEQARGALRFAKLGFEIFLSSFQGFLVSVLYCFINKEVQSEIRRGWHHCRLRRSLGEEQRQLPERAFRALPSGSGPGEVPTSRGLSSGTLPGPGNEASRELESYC

Row | Binder | In vitro activity (%) compared to native-type peptide, vs human GLP-1 (cAMP EC50, human GLP-1 receptor-expressing CHO cells) [1] | In vitro activity (%) compared to native-type peptide, vs human GIP (cAMP EC50, human GIP receptor-expressing CHO cells) [2]
1 | Y[Aib]EGTFTSDYSIALEKQAQRDFVNWLLAGGPSSGAPPPSC [GLP-1/GIP dual agonist of SEQ ID NO: 40] | 97.7% | 181%
2 | [Desaminotyrosyl][Aib]EGTFTSDYSI[Aib]LDAQAA[Aib]AFVQWLIAGGPSSGAPPPSK [GLP-1/GIP dual agonist of SEQ ID NO: 41] | 117% | 58.7%
3 | Y[Aib]EGTFTSDYSI[Aib]LEKQAQQDFVNWLLAGGPSSGAPPPSC [GLP-1/GIP dual agonist of SEQ ID NO: 38] | 14.3% | 216%
4 | [Desaminotyrosyl][Aib]EGTFISDYSIALEAQAQQDFVNWLLAGGPSSGAPPPSK [GLP-1/GIP dual agonist of SEQ ID NO: 43] | 1.2% | 109%
5 | Y[Aib]EGTFTSDYSIALEKQAA[Aib]DFVNWLLAGGPSSGAPPPSC [GLP-1/GIP dual agonist of SEQ ID NO: 39] | 15.9% | 144%
6 | Y[Aib]EGTFTSDYSKYLDEIRAKDFVQWLLDHHPSSGQPPPC (bridge 16-20) [GLP-1/GIP dual agonist of SEQ ID NO: 4] | 1.9% | 18.5%
7 | [Desaminotyrosyl][Aib]EGTFTSDYSI[Aib]LD[Nle]QAA[Aib]AFVQWLIAGGPSSGAPPPSK [GLP-1/GIP dual agonist of SEQ ID NO: 42] | 69.5% | 35.9%
8 | Y[Aib]EGTFTSDYSI[Aib]LDKQAQQ[Aib]FVQWLIAGGPSSGAPPPSC [GLP-1/GIP dual agonist of SEQ ID NO: 37] | 45.2% | 174%
9 | Y[Aib]EGTFTSDYSI[Aib]LDKQHA[Aib]AFVQWLIAGGPSSGAPPPSC [GLP-1/GIP dual agonist of SEQ ID NO: 35] | 9.6% | 64.2%
10 | [Desaminotyrosyl][Aib]EGTFISDYSIALE[Nle]QAQQDFVNWLLAGGPSSGAPPPSK [GLP-1/GIP dual agonist of SEQ ID NO: 44] | 1.4% | 74.2%
11 | Y[Aib]EGTFTSDYSI[Aib]LDKQAQQAFVQWLIAGGPSSGAPPPSC [GLP-1/GIP dual agonist of SEQ ID NO: 36] | 79.9% | 217%
